Test results published in patent publication US20250019454A1 (BIOCYTOGEN PHARMACEUTICALS BEIJING, published 2025).

B1: BC-1A8-IgG1 (antibody, V domains shown)
VH: QVQLQQSGPGLVKPSQTLSLTCAISGDSVSSNSAAWNWIRQSPSRGLEWLGRTYYRSKWYNDYALSVKSRITINPETSKNQFSLQLNSVTPEDTAVYYCAREDGVGGTKDYFDYWGQGTLVTVSS
VL: DIQMTQSPSSLSASVGDRVTITCQASQDIDNYLNWYQQKPGKAPKLLIYDVSNLEIGVPSRFSGSGSGTDFTFTISSLQPEDIATYYCQQYDNLPLTFGQGTRLEIK
notes: Fully human VH/VL joined to the human IgG1 subtype, kappa light chain (RenMab mice)
B2: BC-1F4-IgG1 (antibody, V domains shown)
VH: QVQLQQSGPGLVKPSQTLSLTCAISGDSVSSDSSAWNWIRQSPSRGLEWLGRTYYRSKWYNDYTVSVKSRITINPDTSKNQFSLQLNSVTPEDTAVYYCAREDGVGGTKDYFDYWGQGTLVTVSS
VL: DIQMTQSPSSLSASVGDRVTITCQASQDISNYLNWYQQKPGKAPKLLIYDASNLETGVPSRFSGSGSGTDFTFTINSLQPEDFATYFCQQYDNLPITFGQGTRLEIK
notes: Human VH/VL joined to the human IgG1 subtype
B3: BC-1B6-IgG1 (antibody, V domains shown)
VH: QVQLVESGGGVVQPGRSLRLSCAASGFTFSNFGMHWVRQAPGKGLEWVAVIWYEGSDKYYADSVKGRFTISRDNSKNTLYLQMNSLRAEDTAVYYCARDSSWGFLLYGMDVWGQGTTVTVSS
VL: DVVMTQSPLSLPVTLGQPASISCRSSRSLEYSDGNTYLNWFQQRPGQSPRRLIYKVSNRDSGVPDRFSGSGSGTAFTLKISGVEAEDVGVYYCMQGTHWPPTFGGGTKVEIK
notes: as for B2
B4: BC-1F10-IgG1 (antibody, V domains shown)
VH: QVQLQQWGAGLLKPSETLSLICAVYDGSFSGDYWSWIRQPPGKGLEWIGEINHSGSTNYNPSLKSRVTISVDTSKNQFSLKLSSVTAADTAVYYCARGHWNYDYYYGMDVWGQGTTVTVSS
VL: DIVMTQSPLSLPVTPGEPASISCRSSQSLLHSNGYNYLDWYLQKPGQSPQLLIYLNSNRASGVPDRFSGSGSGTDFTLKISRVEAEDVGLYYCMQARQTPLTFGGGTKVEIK
notes: as for B2
B5: BC-1C3-IgG1 (antibody, V domains shown)
VH: QVQLVESGGGVVHPGKSLRLSCAASGFTFNIYGMHWVRQAPGKGLEWVALISYDGNDKYFADSVKGRFTISRDNSKNTLYLQMNSLRAEDTAVYYCAKAVDTAVVTFFDYWGQGTLVTVSS
VL: EIVMTQSPVTLSVSPGERATLSCRASQSVSSNLAWYQQKPGQAPRLLIYSASTRATGIPARFSGSGSGTEFTLTISSLQSEDLAVYYCQQYSNWPFTFGPGTKVDIK
notes: as for B2

Key:
[1] = molecular target: T1, mouse TNFR2 (on transfected CHO cells) (mouse, UniProt P25119 23-474); test: flow cytometry on transfected CHO cells
T1 construct: also called mTNFR2
T1 sequence: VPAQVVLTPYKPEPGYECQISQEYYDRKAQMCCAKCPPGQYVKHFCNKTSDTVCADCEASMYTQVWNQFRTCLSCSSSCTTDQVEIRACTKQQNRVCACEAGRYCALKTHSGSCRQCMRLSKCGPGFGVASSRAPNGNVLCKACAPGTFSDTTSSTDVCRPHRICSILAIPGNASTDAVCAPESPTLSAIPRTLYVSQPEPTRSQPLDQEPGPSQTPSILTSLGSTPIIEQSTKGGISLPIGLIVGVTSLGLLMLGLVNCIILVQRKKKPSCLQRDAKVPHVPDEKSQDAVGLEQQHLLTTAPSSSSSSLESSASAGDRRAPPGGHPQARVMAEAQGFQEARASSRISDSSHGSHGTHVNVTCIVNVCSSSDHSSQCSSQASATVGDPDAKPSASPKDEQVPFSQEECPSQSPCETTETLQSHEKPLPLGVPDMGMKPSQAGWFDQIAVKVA
Method: (§1) 30 μl CHO cells (1×10⁵ cells) were added to each well. 30 μl purified anti-TNFR2 antibodies (10 μg/mL) (as listed in Table 4) were added to each well and were incubated at 4° C. for 30 minutes.
(§2) After two washes with PBS (1600 rmp, 6 min), 50 μl of Alexa Fluor labeled anti-human IgG Fc antibody […] was added into each well 1:500 dilution, incubated at 4° C. for 15 minutes, followed by a PBS wash (1200 rmp, 5 min). The signals for AF647 were detected by flow cytometry.

[2] = molecular target: T2, dog (Canine) TNFR2 (on transfected CHO cells) (dog); test: flow cytometry on transfected CHO cells
T2 construct: also called dTNFR2
T2 chain: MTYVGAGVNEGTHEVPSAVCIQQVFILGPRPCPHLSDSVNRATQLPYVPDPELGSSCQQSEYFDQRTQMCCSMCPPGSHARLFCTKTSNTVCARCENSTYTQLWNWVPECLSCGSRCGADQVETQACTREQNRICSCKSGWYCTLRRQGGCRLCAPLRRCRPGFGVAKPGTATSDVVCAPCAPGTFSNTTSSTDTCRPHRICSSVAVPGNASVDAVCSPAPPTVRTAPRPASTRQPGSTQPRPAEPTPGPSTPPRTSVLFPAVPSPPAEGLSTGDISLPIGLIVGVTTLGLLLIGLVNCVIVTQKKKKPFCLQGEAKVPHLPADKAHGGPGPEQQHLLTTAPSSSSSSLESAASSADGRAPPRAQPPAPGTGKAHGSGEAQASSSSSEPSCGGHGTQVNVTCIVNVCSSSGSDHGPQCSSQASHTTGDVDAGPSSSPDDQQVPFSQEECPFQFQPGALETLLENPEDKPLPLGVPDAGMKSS
Method: as §1, §2

[3] = molecular target: T3, ΔCRD2-TNFR2 protein (with CRD2 deletion), on CHO-S cells (human, UniProt P20333 23-461); test: FACS on CHO-S cells with ΔCRD2-TNFR2, AF647 anti-human IgG Fc secondary
T3 construct: also called CHO-SΔCRD2-TNFR2
T3 sequence: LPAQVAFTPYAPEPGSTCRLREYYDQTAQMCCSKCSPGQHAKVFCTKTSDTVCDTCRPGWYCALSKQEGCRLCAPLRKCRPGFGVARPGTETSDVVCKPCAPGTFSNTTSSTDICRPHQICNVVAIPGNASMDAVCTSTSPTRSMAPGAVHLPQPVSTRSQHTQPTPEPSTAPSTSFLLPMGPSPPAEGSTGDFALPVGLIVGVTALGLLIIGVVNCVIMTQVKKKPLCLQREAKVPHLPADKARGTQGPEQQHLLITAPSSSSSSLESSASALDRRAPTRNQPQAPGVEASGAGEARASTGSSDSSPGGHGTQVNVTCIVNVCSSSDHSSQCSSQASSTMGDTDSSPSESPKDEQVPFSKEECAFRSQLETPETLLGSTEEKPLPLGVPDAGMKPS
Excerpt: (§3) TNFR2 has four cysteine rich domains (CRD). In another experiment, FACS was used to detect the binding of anti-hTNFR2 antibodies to TNFR2 proteins with different structural domains. Secondary antibody (Alexa Fluor® 647 AffiniPure F(ab′) 2 Fragment Goat Anti-Human IgG, Fcγ fragment specific, Jackson ImmunoResearch Laboratories, Inc., Cat #: 151524) was used. The fluorescence-labeled secondary antibody can attach to the Fc region of the anti-hTNFR2 antibodies so that the anti-hTNFR2 antibodies that are bound to the ΔCRD cells can be detected by FACS. Specifically, ΔCRD1-TNFR2 protein (with CRD1 deleteion), ΔCRD2-TNFR2 protein (with CRD2 deleteion), ΔCRD3-TNFR2 protein (with CRD3 deleteion) or ΔCRD4-TNFR2 protein (with CRD4 deleteion) were expressed in CHO-S cells respectively, and then the binding between the cells and different anti-hTNFR2 antibodies was detected.

[4] = molecular target: T4, ΔCRD3-TNFR2 protein (with CRD3 deletion), on CHO-S cells (human, UniProt P20333 23-461); test: FACS on CHO-S cells with ΔCRD3-TNFR2, AF647 anti-human IgG Fc secondary
T4 construct: also called CHO-SΔCRD3-TNFR2; TNFR2 lacking CRD3
T4 sequence: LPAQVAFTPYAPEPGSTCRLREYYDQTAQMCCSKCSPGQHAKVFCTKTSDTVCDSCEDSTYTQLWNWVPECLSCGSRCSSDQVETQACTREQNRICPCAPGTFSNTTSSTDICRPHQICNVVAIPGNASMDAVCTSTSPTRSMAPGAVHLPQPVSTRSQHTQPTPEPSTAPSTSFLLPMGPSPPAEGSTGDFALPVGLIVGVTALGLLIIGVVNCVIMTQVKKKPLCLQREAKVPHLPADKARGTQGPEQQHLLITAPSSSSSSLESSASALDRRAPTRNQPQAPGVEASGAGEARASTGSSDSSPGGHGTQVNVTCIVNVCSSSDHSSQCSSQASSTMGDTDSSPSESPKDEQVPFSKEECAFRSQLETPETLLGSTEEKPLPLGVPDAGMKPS
Excerpt: as §3

| binding result [1] | binding result [2] | positive rate of binding (% of cells) [3] [%] | positive rate of binding (% of cells) [4] [%] | Binder |
| --- | --- | --- | --- | --- |
| no binding (tested: 10 µg/mL) | no binding (tested: 10 µg/mL) | 71.2 | 0.52 | B1 |
| no binding (tested: 10 µg/mL) | no binding (tested: 10 µg/mL) | 59.1 | 0.47 | B2 |
| no binding (tested: 10 µg/mL) | no binding (tested: 10 µg/mL) | – | – | B3 |
| no binding (tested: 10 µg/mL) | no binding (tested: 10 µg/mL) | 65.7 | 23.1 | B4 |
| no binding (tested: 10 µg/mL) | no binding (tested: 10 µg/mL) | 80.3 | 0.81 | B5 |
